The source of these data is the supplement of paper PMC6379048.

Common to all, as to test: Kd (EC50 corrected by depletion factor)
Data set [1] deals with T1, MCM4 (UniProt P33991).
T1 sequence: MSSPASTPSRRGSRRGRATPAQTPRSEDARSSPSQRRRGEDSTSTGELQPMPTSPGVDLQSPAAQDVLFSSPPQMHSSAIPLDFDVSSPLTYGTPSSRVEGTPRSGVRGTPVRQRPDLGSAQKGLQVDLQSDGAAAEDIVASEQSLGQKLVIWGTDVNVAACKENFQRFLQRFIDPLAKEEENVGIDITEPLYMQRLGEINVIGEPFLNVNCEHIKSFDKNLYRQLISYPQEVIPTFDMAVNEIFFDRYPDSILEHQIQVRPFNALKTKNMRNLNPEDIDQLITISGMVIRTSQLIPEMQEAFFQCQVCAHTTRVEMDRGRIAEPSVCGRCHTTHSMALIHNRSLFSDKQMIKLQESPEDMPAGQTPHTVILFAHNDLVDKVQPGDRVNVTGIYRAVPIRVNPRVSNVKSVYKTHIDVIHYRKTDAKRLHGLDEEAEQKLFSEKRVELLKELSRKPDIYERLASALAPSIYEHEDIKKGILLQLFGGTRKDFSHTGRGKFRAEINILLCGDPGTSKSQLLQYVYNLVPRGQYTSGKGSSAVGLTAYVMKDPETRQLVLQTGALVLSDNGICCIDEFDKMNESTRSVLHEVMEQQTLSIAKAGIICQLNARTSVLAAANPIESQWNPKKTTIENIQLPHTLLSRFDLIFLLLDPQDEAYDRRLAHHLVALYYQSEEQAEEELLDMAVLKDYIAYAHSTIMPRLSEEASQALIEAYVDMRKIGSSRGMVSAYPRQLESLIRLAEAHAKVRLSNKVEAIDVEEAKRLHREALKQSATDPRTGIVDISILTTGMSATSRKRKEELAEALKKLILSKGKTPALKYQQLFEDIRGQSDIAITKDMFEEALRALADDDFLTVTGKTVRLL
Summed up:
(§1)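 HEK293-FT lysate (2.5 mg protein/well) was treated with free RNA oligos (0 nM to 30 μM) for 1 h at 4°C, then with the same oligos on NHS-Sepharose beads for 30 min at 4°C. Bound proteins were quantified by label-free LC-MS/MS relative to the control. EC50 came from a four-parameter log-logistic fit, and Kd is EC50 times a protein-dependent depletion factor.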

For data set [2], the target named is MRPL48 (UniProt Q96GC5). Summed up:
as §1

For data set [3], the target named is RPS19 (UniProt P39019). Summed up:
as §1

Data set [4] has as its target RPS12 (UniProt P25398). The essentials:
as §1

In data set [5] the target is T2, YTHDC2 (UniProt Q9H6S0).
T2 sequence: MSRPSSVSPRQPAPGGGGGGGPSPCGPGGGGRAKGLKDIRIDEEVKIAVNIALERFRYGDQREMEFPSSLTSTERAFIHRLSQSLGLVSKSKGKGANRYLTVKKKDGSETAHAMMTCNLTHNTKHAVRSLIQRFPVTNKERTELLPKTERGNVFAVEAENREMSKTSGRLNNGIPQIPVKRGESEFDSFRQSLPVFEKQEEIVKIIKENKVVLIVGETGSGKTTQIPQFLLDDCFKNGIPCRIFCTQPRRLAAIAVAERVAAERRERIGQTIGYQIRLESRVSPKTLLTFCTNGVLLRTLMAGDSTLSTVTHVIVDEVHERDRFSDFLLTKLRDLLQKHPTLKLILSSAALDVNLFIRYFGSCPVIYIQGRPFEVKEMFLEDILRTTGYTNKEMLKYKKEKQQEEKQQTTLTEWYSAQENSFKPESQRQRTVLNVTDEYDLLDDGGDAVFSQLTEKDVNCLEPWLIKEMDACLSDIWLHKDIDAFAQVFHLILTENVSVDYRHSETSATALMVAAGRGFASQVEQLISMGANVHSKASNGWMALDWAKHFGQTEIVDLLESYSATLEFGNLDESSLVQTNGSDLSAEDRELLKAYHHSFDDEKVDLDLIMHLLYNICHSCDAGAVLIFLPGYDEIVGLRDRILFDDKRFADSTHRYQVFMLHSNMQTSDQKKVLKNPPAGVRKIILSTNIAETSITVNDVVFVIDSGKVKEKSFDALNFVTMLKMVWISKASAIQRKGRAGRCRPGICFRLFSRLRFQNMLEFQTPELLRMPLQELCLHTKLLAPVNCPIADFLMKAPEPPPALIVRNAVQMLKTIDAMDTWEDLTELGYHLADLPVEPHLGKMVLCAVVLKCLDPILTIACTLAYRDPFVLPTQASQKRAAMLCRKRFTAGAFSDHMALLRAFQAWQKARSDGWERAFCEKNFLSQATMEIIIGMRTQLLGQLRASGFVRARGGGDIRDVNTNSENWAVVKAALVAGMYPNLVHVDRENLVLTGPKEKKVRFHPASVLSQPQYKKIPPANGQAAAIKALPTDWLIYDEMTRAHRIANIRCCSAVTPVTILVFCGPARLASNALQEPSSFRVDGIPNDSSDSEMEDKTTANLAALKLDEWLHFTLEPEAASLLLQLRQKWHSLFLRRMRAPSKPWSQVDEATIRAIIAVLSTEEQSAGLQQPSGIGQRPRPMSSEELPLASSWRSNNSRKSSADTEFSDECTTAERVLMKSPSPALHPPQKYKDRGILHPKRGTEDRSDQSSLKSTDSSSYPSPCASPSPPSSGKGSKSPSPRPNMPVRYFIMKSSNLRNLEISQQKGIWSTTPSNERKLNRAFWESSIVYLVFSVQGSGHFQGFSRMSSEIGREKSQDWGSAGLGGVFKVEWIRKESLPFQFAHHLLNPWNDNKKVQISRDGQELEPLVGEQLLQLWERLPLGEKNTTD
The essentials: as §1

Data set [6] addresses MRPL11 (UniProt Q9Y3B7). The essentials: as §1
The target of data set [7] is MRPS9 (UniProt P82933). Summed up: as §1
Data set [8] deals with MRPS18B (UniProt Q9Y676). The essentials:
as §1

Data set [9] has as its target MRPS7 (UniProt Q9Y2R9). Summed up: as §1

AAUAAA registered a Kd in data set [1] of 25.8 nM.

With CUGUCCU, the equilibrium dissociation constant (Kd) in [2] was 96.1 nM; in data set [3] it was 69.9 nM; in [4], 128 nM; in data set [5], 986 nM; in data set [6] it was 53.7 nM.

UAUUUAU: the Kd was determined as 27.1 nM in data set [7], 52.9 nM in data set [8] and 29.4 nM in [9].
